Laboratory results from the Immune Epitope Database (IEDB).

Key:
HLA-A*02:02 = test: IEDB peptide-MHC binding, purified MHC/competitive/radioactivity; filed as Kd, often an IC50 or EC50 that approximates it; ≥ and ≤ were set here for values at or beyond the usual limits of such assays
HLA-A*02:03 = test: as above
HLA-A*02:06 = test: as above
HLA-B*53:01 = test: as above
HLA-B*35:01 = test: as above
HLA-B*51:01 = test: as above
HLA-A*03:01 = test: IEDB peptide-MHC binding, purified MHC/direct/fluorescence; filed as Kd, often an IC50 or EC50 that approximates it; ≥ and ≤ were set here for values at or beyond the usual limits of such assays; settings: source organism: Vibrio cholerae
HLA-A*02:01 [1] = test: IEDB peptide-MHC binding, purified MHC/competitive/fluorescence; ≥ and ≤ were set here for values at or beyond the usual limits of such assays
HLA-A*24:02 = test: as above
HLA-A*30:02 = test: IEDB peptide-MHC binding, purified MHC/competitive/radioactivity; filed as Kd, often an IC50 or EC50 that approximates it; ≥ and ≤ were set here for values at or beyond the usual limits of such assays
HLA-B*58:01 = test: IEDB peptide-MHC binding, purified MHC/direct/fluorescence; filed as Kd, often an IC50 or EC50 that approximates it; ≥ and ≤ were set here for values at or beyond the usual limits of such assays; settings: source organism: Haemophilus influenzae
HLA-B*15:01 = test: as above; settings: source organism: Haemophilus influenzae
HLA-A*26:01 = test: IEDB peptide-MHC binding, purified MHC/competitive/fluorescence; filed as Kd, often an IC50 or EC50 that approximates it; ≥ and ≤ were set here for values at or beyond the usual limits of such assays; settings: source organism: Yersinia pestis Nepal516
HLA-A*02:01 [2] = test: as above; settings: source organism: Vaccinia virus WR
[3] = source organism: Vaccinia virus WR
[4] = source organism: SARS coronavirus Tor2
[5] = source organism: Dengue virus 2 Jamaica/1409/1983
[6] = source organism: Dengue virus 1 Brazil/97-11/1997
[7] = source organism: Zaire ebolavirus
[8] = source organism: Dengue virus 4 Philippines/H241/1956
[9] = source organism: Lymphocytic choriomeningitis virus (strain Armstrong)
[10] = source organism: Sudan ebolavirus
[11] = source organism: Vaccinia virus
[12] = source organism: Mammarenavirus machupoense

Sequence	Kd (HLA-A*02:02; [3])	Kd (HLA-A*02:03; [3])	Kd (HLA-A*02:06; [3])	other results
LLPLTSLVIT	999 nM	1320 nM	1610 nM	
LMIGNYFSGV	0.126 nM	0.0932 nM	0.132 nM	
LMSFTILCL				Kd (HLA-A*02:02; [4]): 0.269 nM; Kd (HLA-A*02:03; [4]): 16.3 nM; Kd (HLA-A*02:06; [4]): 1.84 nM
LPIRYQTPAI				Kd (HLA-B*53:01; [5]): 13.5 nM; Kd (HLA-B*35:01; [5]): 51.9 nM; Kd (HLA-B*51:01; [5]): 69.1 nM
LPLPWLPGAD				Kd (HLA-B*35:01; [5]): 2490 nM; Kd (HLA-B*51:01; [5]): ≥ 32600 nM
LPLPWTSGAS				Kd (HLA-B*35:01; [6]): 938 nM; Kd (HLA-B*51:01; [6]): 10600 nM
LSARHASGK				Kd (HLA-A*03:01): 127 nM
LTGNNTITT	5750 nM	5620 nM	8680 nM	
LTSVDIETAI	509 nM	2150 nM	3130 nM	
LTTLATIST				IC50 (HLA-A*02:01 [1]; [7]): 7630 nM
MAFILGIII	9530 nM	9760 nM	≥ 32500 nM	
MKDEPVVFS				IC50 (HLA-A*02:01 [1]; [7]): ≥ 420000 nM
MLFTKFFYL				Kd (HLA-A*02:02; [4]): 0.0849 nM; Kd (HLA-A*02:03; [4]): 17.2 nM; Kd (HLA-A*02:06; [4]): 1.43 nM
MPTVIEELEK				Kd (HLA-B*53:01; [8]): 5380 nM; Kd (HLA-B*35:01; [8]): 2620 nM
MSCDDVVFGI				Kd (HLA-A*02:02; [9]): 1040 nM; Kd (HLA-A*02:03; [9]): 12100 nM; Kd (HLA-A*02:06; [9]): 249 nM
NETEYLFEV				IC50 (HLA-A*02:01 [1]; [7]): 43600 nM
NLAPHLLLIV				Kd (HLA-A*02:02; [4]): 5.1 nM; Kd (HLA-A*02:03; [4]): 1.07 nM; Kd (HLA-A*02:06; [4]): 125 nM
NNLEEICQL				IC50 (HLA-A*02:01 [1]; [7]): ≥ 225000 nM
NPTVDGITV				Kd (HLA-B*51:01; [5]): 6300 nM
NTCKPTILAT	460 nM	248 nM	3920 nM	

Sequence	Kd (HLA-A*02:02; [3])	Kd (HLA-A*02:03; [3])	Kd (HLA-A*02:06; [3])	other results
NTIAVITETI	50.2 nM	56.3 nM	784 nM	
NTLISSDGA	7410 nM	3570 nM	≥ 49400 nM	
NYEAGEWAE				IC50 (HLA-A*24:02; [7]): 13400 nM
NYTENTSSY				IC50 (HLA-A*24:02; [10]): 6230 nM
PFIRNPNKM				IC50 (HLA-A*24:02; [3]): 65.8 nM
QPENLEYTI				Kd (HLA-B*53:01; source organism: Dengue virus 2 16681-PDK53): 28 nM
RLEELLPAV				IC50 (HLA-A*02:01 [1]; [7]): 1850 nM
RNLNVTTQS				IC50 (HLA-A*02:01 [1]; [11]): ≥ 558000 nM
RRWGGTCRI				IC50 (HLA-A*24:02; [10]): 708 nM
RSLETDLRS				IC50 (HLA-A*02:01 [1]; [11]): ≥ 158000 nM
RTWKVLSIMA	≥ 24000 nM	6050 nM	5750 nM	
RVILAGPMPV				Kd (HLA-A*02:03; [5]): 7.76 nM; Kd (HLA-A*02:06; [5]): 31.9 nM
SAIALGVAT				IC50 (HLA-A*02:01 [1]; [7]): ≥ 242000 nM
SIGKMLESTY				Kd (HLA-A*30:02; [8]): 1560 nM
SIMSMMNIT	4970 nM	681 nM	1760 nM	
SLVITYCLVT	286 nM	566 nM	824 nM	
SQKHFDTWW				Kd (HLA-B*58:01): 3040 nM; Kd (HLA-B*15:01): 473 nM
SSWAVHWFS				Kd (HLA-A*02:02; [12]): 4640 nM; Kd (HLA-A*02:03; [12]): ≥ 78100 nM; Kd (HLA-A*02:06; [12]): ≥ 46800 nM
STAEQLSKYV	1060 nM	1870 nM	697 nM	
STDQDTMLFA	646 nM	4700 nM	2020 nM	

Sequence	Kd (HLA-A*02:02; [3])	Kd (HLA-A*02:03; [3])	Kd (HLA-A*02:06; [3])	other results
SVNASKTINA	17300 nM	731 nM	≥ 28800 nM	
SWHYDQDHPY				Kd (HLA-A*30:02; [5]): ≥ 69700 nM
SYNDYFNVL				IC50 (HLA-A*24:02; [11]): 98.3 nM
TAGNKVDVDI	11000 nM	3500 nM	≥ 38000 nM	
TPKGAVMDI				Kd (HLA-B*51:01; [8]): 4220 nM
TPQDNQLAY				Kd (HLA-B*35:01; [6]): 10.3 nM
TQWSLFFFV				Kd (HLA-A*02:02; [4]): 79.6 nM; Kd (HLA-A*02:03; [4]): 540 nM; Kd (HLA-A*02:06; [4]): 0.812 nM
TTRGETLFY				Kd (HLA-A*26:01): 34.1 nM
TVLTSVDIET	1720 nM	915 nM	961 nM	
VAVSFVTLI				Kd (HLA-B*51:01; [5]): 431 nM
VISTIANSNI	282 nM	845 nM	5160 nM	
VIVENDNVI	15500 nM	19500 nM	7230 nM	
VPLLAMGCY				Kd (HLA-B*35:01; [8]): 112 nM
VPPLPLFIF				Kd (HLA-B*51:01; source organism: Dengue virus 3 Martinique/1243/1999): 3580 nM
WIPYFGPGA				IC50 (HLA-A*02:01 [1]; [10]): 1460 nM
YALEPRKEI	3700 nM	7070 nM	4110 nM	
YGTLIIDEV				IC50 (HLA-A*02:01 [1]; source organism: Variola virus): 3320 nM
YIEDELRRAA	628 nM	166 nM	204 nM	
YISRDELWA	333 nM	242 nM	1200 nM	
YLYQPCDLL				Kd (HLA-A*02:01 [2]): 0.2 nM
